Experimental data published in patent publication US20230174652A1 (Regeneron, published 2023).

Experiments:
[1] = biological target: T1, human CD22 (human, UniProt P20273 20-847); assay: flow cytometry on Raji/CD80 and CD86 negative cells
T1 construct: whole, on cells; also called hCD22
Protocol: Briefly, human CD4+ T-cells, HEK293/hCD20, HEK293/hCD20/hCD22 and Raji/CD80 and CD86 negative cells were resuspended in staining buffer containing D-PBS+2% FBS. […] A negative control sample was included containing no antibody. Cells were washed once with cold staining buffer and incubated for 30-45 minutes with Allophycocyanin (APC) labeled anti-human secondary antibody. After incubation, cells were washed once with cold D-PBS buffer without FBS and incubated with LIVE/DEAD Fixable Green Dead Cell Stain (Invitrogen) according to manufacturer's instructions to discriminate between live and dead cells. Cells were then fixed in BD Cytofix Buffer according to manufacturer's instructions, washed, re-suspended in staining buffer, and analyzed by flow cytometry on an iQue Screener flow cytometer. For EC₅₀ determinations, geometric mean fluorescence intensity (MFI) values were analyzed using a four parameter logistic equation over a 9-point response curve using GraphPad Prism. Fold binding was calculated using the following equation:

[2] = biological target: T2, CD3 molecules on human T cells (human, UniProt P07766 23-207); assay: cell-based or functional assay
[3] = biological target: T2, CD3 molecules on human T cells; assay: cell-based or functional assay; remark: listed apart in the source

T2 sequence (P07766 23-207): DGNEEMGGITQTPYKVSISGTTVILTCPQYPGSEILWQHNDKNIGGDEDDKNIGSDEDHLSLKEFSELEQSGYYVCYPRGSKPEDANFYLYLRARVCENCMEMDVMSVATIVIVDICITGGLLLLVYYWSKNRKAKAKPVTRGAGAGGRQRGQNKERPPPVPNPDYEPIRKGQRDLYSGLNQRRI

B1: REGN5837 (bispecific antibody, human IgG4, V domains shown)
VH 1: QVQLQESGPGLVKPSETLSLTCTVSGGSISSYYWSWIRQPPGKGLEWIGYIYYSGITHYNPSLKSRVTISVDTSKIQFSLKLSSVTAADTAVYYCARWGVRRDYYYYGMDVWGQGTTVTVSS
VH 2: EVQLVQSGAEVKKPGESLKISCKGSGYNFATYWIAWVRQMPGKGLELMGIIYPGDSETTYNPSFQGQVTISADKSISNAYLQWSSLKASDTAMYYCARVGGYCSGTSCHNWFDPWGLGTLVTVSS
VL: not shown
notes: also called anti-CD22 x anti-CD28 bispecific antibody; CD22xCD28
EC50 [1]: 9.76 nM

B2: REGN1979 (bispecific antibody, human IgG4 S228P, kappa)
heavy 1: EVQLVESGGGLVQPGRSLRLSCVASGFTFNDYAMHWVRQAPGKGLEWVSVISWNSDSIGYADSVKGRFTISRDNAKNSLYLQMHSLRAEDTALYYCAKDNHYGSGSYYYYQYGMDVWGQGTTVTVSSASTKGPSVFPLAPCSRSTSESTAALGCLVKDYFPEPVTVSWNSGALTSGVHTFPAVLQSSGLYSLSSVVTVPSSSLGTKTYTCNVDHKPSNTKVDKRVESKYGPPCPPCPAPPVAGPSVFLFPPKPKDTLMISRTPEVTCVVVDVSQEDPEVQFNWYVDGVEVHNAKTKPREEQFNSTYRVVSVLTVLHQDWLNGKEYKCKVSNKGLPSSIEKTISKAKGQPREPQVYTLPPSQEEMTKNQVSLTCLVKGFYPSDIAVEWESNGQPENNYKTTPPVLDSDGSFFLYSRLTVDKSRWQEGNVFSCSVMHEALHNHYTQKSLSLSLGK
heavy 2: EVQLVESGGGLVQPGRSLRLSCAASGFTFDDYTMHWVRQAPGKGLEWVSGISWNSGSIGYADSVKGRFTISRDNAKKSLYLQMNSLRAEDTALYYCAKDNSGYGHYYYGMDVWGQGTTVTVASASTKGPSVFPLAPCSRSTSESTAALGCLVKDYFPEPVTVSWNSGALTSGVHTFPAVLQSSGLYSLSSVVTVPSSSLGTKTYTCNVDHKPSNTKVDKRVESKYGPPCPPCPAPPVAGPSVFLFPPKPKDTLMISRTPEVTCVVVDVSQEDPEVQFNWYVDGVEVHNAKTKPREEQFNSTYRVVSVLTVLHQDWLNGKEYKCKVSNKGLPSSIEKTISKAKGQPREPQVYTLPPSQEEMTKNQVSLTCLVKGFYPSDIAVEWESNGQPENNYKTTPPVLDSDGSFFLYSRLTVDKSRWQEGNVFSCSVMHEALHNRFTQKSLSLSLGK
light: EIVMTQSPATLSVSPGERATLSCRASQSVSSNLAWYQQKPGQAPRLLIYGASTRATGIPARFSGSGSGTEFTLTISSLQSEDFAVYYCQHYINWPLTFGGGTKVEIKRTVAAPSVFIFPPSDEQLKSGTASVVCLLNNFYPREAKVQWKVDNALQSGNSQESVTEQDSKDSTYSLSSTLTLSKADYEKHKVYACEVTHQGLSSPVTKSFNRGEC
CD4+ T cell activation (% CD25+), Fold Change (EC50), fixed REGN5837 0 (reference) [2]: 1 fold | CD4+ T cell activation (% CD25+), REGN1979 EC50 (M), fixed REGN5837 0 [2]: 9.17e-13 M | CD4+ T cell activation (% CD25+), REGN1979 EC50 (M), fixed REGN5837 1.00 × 10^-7 [2]: 1.16e-13 M | CD4+ T cell activation (% CD25+), REGN1979 EC50 (M), fixed REGN5837 1.67 × 10^-8 [2]: 8.7e-14 M | CD4+ T cell activation (% CD25+), REGN1979 EC50 (M), fixed REGN5837 4.63 × 10^-10 [2]: 1.46e-13 M | CD4+ T cell activation (% CD25+), REGN1979 EC50 (M), fixed REGN5837 7.72 × 10^-11 [2]: 2.08e-13 M | CD4+ T-cell Proliferation, Fold Change (EC50), fixed REGN5837 0 (reference) [2]: 1 fold | CD4+ T-cell Proliferation, REGN1979 EC50 (M), fixed REGN5837 0 [2]: 1.63e-11 M | CD4+ T-cell Proliferation, REGN1979 EC50 (M), fixed REGN5837 1.00 × 10^-7 [2]: 8.42e-13 M | CD4+ T-cell Proliferation, REGN1979 EC50 (M), fixed REGN5837 1.67 × 10^-8 [2]: 9.31e-13 M | CD4+ T-cell Proliferation, REGN1979 EC50 (M), fixed REGN5837 2.78 × 10^-9 [2]: 4.25e-13 M | CD4+ T-cell Proliferation, REGN1979 EC50 (M), fixed REGN5837 4.63 × 10^-10 [2]: 1.25e-12 M | CD4+ T-cell Proliferation, REGN1979 EC50 (M), fixed REGN5837 7.72 × 10^-11 [2]: 2.36e-12 M | CD8+ T cell activation (% CD25+), Fold Change (EC50), fixed REGN5837 0 (reference) [2]: 1 fold | CD8+ T cell activation (% CD25+), REGN1979 EC50 (M), fixed REGN5837 0 [2]: 3.38e-12 M | CD8+ T cell activation (% CD25+), REGN1979 EC50 (M), fixed REGN5837 1.00 × 10^-7 [2]: 6.32e-13 M | CD8+ T cell activation (% CD25+), REGN1979 EC50 (M), fixed REGN5837 1.67 × 10^-8 [2]: 5.88e-13 M | CD8+ T cell activation (% CD25+), REGN1979 EC50 (M), fixed REGN5837 2.78 × 10^-9 [2]: 2.68e-13 M | CD8+ T cell activation (% CD25+), REGN1979 EC50 (M), fixed REGN5837 4.63 × 10^-10 [2]: 9.01e-13 M | CD8+ T cell activation (% CD25+), REGN1979 EC50 (M), fixed REGN5837 7.72 × 10^-11 [2]: 1.64e-12 M | CD8+ T-cell Proliferation, Fold Change (EC50), fixed REGN5837 0 (reference) [2]: 1 fold | CD8+ T-cell Proliferation, REGN1979 EC50 (M), fixed REGN5837 0 [2]: 1.97e-11 M | CD8+ T-cell Proliferation, REGN1979 EC50 (M), fixed REGN5837 1.00 × 10^-7 [2]: 1.55e-12 M | CD8+ T-cell Proliferation, REGN1979 EC50 (M), fixed REGN5837 1.67 × 10^-8 [2]: 8.31e-13 M | CD8+ T-cell Proliferation, REGN1979 EC50 (M), fixed REGN5837 2.78 × 10^-9 [2]: 7.09e-13 M | CD8+ T-cell Proliferation, REGN1979 EC50 (M), fixed REGN5837 4.63 × 10^-10 [2]: 3.43e-12 M | CD8+ T-cell Proliferation, REGN1979 EC50 (M), fixed REGN5837 7.72 × 10^-11 [2]: 8.36e-12 M | WSU-DLCL2 Cell Killing, Fold Change (EC50), fixed REGN5837 0 (reference) [2]: 1 fold | WSU-DLCL2 Cell Killing, REGN1979 EC50 (M), fixed REGN5837 0 [2]: 2.89e-12 M | WSU-DLCL2 Cell Killing, REGN1979 EC50 (M), fixed REGN5837 1.00 × 10^-7 [2]: 8.53e-14 M | WSU-DLCL2 Cell Killing, REGN1979 EC50 (M), fixed REGN5837 1.67 × 10^-8 [2]: 1.85e-13 M | WSU-DLCL2 Cell Killing, REGN1979 EC50 (M), fixed REGN5837 2.78 × 10^-9 [2]: 3.98e-13 M | WSU-DLCL2 Cell Killing, REGN1979 EC50 (M), fixed REGN5837 4.63 × 10^-10 [2]: 3.46e-13 M | WSU-DLCL2 Cell Killing, REGN1979 EC50 (M), fixed REGN5837 7.72 × 10^-11 [2]: 8.37e-13 M | IFN-gamma release, Fold change (CKR), fixed REGN5837 0 (reference) [3]: 1 fold | IFN-gamma release, REGN1979 EC50 (M), fixed REGN5837 0 [3]: 1.82e-10 M | IFN-gamma release, REGN1979 EC50 (M), fixed REGN5837 1.0 X 10^-7 [3]: 1.17e-10 M | IFN-gamma release, REGN1979 EC50 (M), fixed REGN5837 1.67 X 10^-8 [3]: 5.34e-11 M | IFN-gamma release, REGN1979 EC50 (M), fixed REGN5837 2.78 X 10^-9 [3]: 2e-10 M | IFN-gamma release, REGN1979 EC50 (M), fixed REGN5837 4.63 X 10^-10 [3]: 6.72e-11 M | IFN-gamma release, REGN1979 EC50 (M), fixed REGN5837 7.72 X 10^-11 [3]: 6.57e-11 M | IL-2 release, Fold change (CKR), fixed REGN5837 0 (reference) [3]: 1 fold | IL-2 release, REGN1979 EC50 (M), fixed REGN5837 0 [3]: 1.25e-10 M | IL-2 release, REGN1979 EC50 (M), fixed REGN5837 1.0 X 10^-7 [3]: 2.81e-11 M | IL-2 release, REGN1979 EC50 (M), fixed REGN5837 1.67 X 10^-8 [3]: 1.96e-11 M | IL-2 release, REGN1979 EC50 (M), fixed REGN5837 2.78 X 10^-9 [3]: 5.18e-12 M | IL-2 release, REGN1979 EC50 (M), fixed REGN5837 4.63 X 10^-10 [3]: 5.36e-11 M | IL-2 release, REGN1979 EC50 (M), fixed REGN5837 7.72 X 10^-11 [3]: 3.89e-08 M | IL-4 release, Fold change (CKR), fixed REGN5837 0 (reference) [3]: 1 fold | IL-4 release, REGN1979 EC50 (M), fixed REGN5837 0 [3]: 9.99e-10 M | IL-4 release, REGN1979 EC50 (M), fixed REGN5837 1.0 X 10^-7 [3]: 1.66e-11 M | IL-4 release, REGN1979 EC50 (M), fixed REGN5837 1.67 X 10^-8 [3]: 1.53e-11 M | IL-4 release, REGN1979 EC50 (M), fixed REGN5837 2.78 X 10^-9 [3]: 1.28e-11 M | IL-4 release, REGN1979 EC50 (M), fixed REGN5837 4.63 X 10^-10 [3]: 1.89e-11 M | IL-4 release, REGN1979 EC50 (M), fixed REGN5837 7.72 X 10^-11 [3]: 3.77e-10 M | IL-6 release, Fold change (CKR), fixed REGN5837 0 (reference) [3]: 1 fold | IL-6 release, REGN1979 EC50 (M), fixed REGN5837 0 [3]: 7.42e-11 M | IL-6 release, REGN1979 EC50 (M), fixed REGN5837 1.0 X 10^-7 [3]: 5.13e-11 M | IL-6 release, REGN1979 EC50 (M), fixed REGN5837 1.67 X 10^-8 [3]: 7.89e-12 M | IL-6 release, REGN1979 EC50 (M), fixed REGN5837 2.78 X 10^-9 [3]: 2.68e-11 M | IL-6 release, REGN1979 EC50 (M), fixed REGN5837 4.63 X 10^-10 [3]: 1.45e-12 M | IL-6 release, REGN1979 EC50 (M), fixed REGN5837 7.72 X 10^-11 [3]: 1.61e-10 M | IL-10 release, Fold change (CKR), fixed REGN5837 0 (reference) [3]: 1 fold | IL-10 release, REGN1979 EC50 (M), fixed REGN5837 0 [3]: 9.95e-11 M | IL-10 release, REGN1979 EC50 (M), fixed REGN5837 1.0 X 10^-7 [3]: 3.54e-11 M | IL-10 release, REGN1979 EC50 (M), fixed REGN5837 1.67 X 10^-8 [3]: 1.04e-10 M | IL-10 release, REGN1979 EC50 (M), fixed REGN5837 2.78 X 10^-9 [3]: 2.43e-10 M | IL-10 release, REGN1979 EC50 (M), fixed REGN5837 4.63 X 10^-10 [3]: 5.29e-11 M | IL-10 release, REGN1979 EC50 (M), fixed REGN5837 7.72 X 10^-11 [3]: 3.34e-11 M | IL-17A release, Fold change (CKR), fixed REGN5837 0 (reference) [3]: 1 fold | IL-17A release, REGN1979 EC50 (M), fixed REGN5837 0 [3]: 2.5e-10 M | IL-17A release, REGN1979 EC50 (M), fixed REGN5837 1.0 X 10^-7 [3]: 3.22e-10 M | IL-17A release, REGN1979 EC50 (M), fixed REGN5837 1.67 X 10^-8 [3]: 1.11e-10 M | IL-17A release, REGN1979 EC50 (M), fixed REGN5837 2.78 X 10^-9 [3]: 7.6e-11 M | IL-17A release, REGN1979 EC50 (M), fixed REGN5837 4.63 X 10^-10 [3]: 4.63e-10 M | IL-17A release, REGN1979 EC50 (M), fixed REGN5837 7.72 X 10^-11 [3]: 1.86e-10 M | TNF alpha release, Fold change (CKR), fixed REGN5837 0 (reference) [3]: 1 fold | TNF alpha release, REGN1979 EC50 (M), fixed REGN5837 0 [3]: 2.43e-10 M | TNF alpha release, REGN1979 EC50 (M), fixed REGN5837 1.0 X 10^-7 [3]: 5.03e-12 M | TNF alpha release, REGN1979 EC50 (M), fixed REGN5837 1.67 X 10^-8 [3]: 8.69e-13 M | TNF alpha release, REGN1979 EC50 (M), fixed REGN5837 2.78 X 10^-9 [3]: 3.45e-12 M | TNF alpha release, REGN1979 EC50 (M), fixed REGN5837 7.72 X 10^-11 [3]: 1.62e-10 M
